Assay results published in patent US20240228599A1 (Sanofi, published 2024).

T1: cynomolgus monkey Factor Bb (cynomolgus monkey)
T1 chain: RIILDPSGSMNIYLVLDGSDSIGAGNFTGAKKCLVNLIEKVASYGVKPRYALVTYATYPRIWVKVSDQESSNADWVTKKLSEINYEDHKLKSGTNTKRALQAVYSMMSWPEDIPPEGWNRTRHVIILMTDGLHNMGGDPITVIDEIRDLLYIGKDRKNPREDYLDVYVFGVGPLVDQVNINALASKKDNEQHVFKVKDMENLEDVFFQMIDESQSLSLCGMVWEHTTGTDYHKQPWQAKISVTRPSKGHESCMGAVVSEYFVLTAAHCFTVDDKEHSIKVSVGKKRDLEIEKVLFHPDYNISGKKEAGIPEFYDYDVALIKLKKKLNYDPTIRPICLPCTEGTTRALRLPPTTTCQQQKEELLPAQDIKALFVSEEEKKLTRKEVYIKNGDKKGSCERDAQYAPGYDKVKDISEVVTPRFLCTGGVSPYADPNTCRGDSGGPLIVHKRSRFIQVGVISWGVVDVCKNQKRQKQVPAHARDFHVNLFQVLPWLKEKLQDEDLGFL


Experiments:
purified human Factor Bb [1] = biological target: T2, purified human Factor Bb (human, UniProt P00751 260-764); experiment: antigen-capture ELISA; mAb at 1 µg/mL on goat anti-mouse IgG plates, 1 µg/mL biotinylated Factor Bb or Factor B, streptavidin-HRP; OD450 with Factor Bb divided by OD450 with Factor B; the text rounds this to 5.5
T2 construct: Bought purified protein (Complement Technologies); also called fBb; complement factor Bb
Experimental: (§1) Preferential binding of factor Bb antibodies to activated factor B versus full length Factor B zymogen was determined in an optimized antigen-capture ELISA format to evaluate binding to target soluble proteins. 1 μg/mL of antibody was bound to goat anti-mouse IgG coated plates (Pierce; Thermo Scientific), followed by incubation with 1 μg/mL biotinylated factor Bb or factor B (Complement Technologies). Bound factor Bb/B proteins were detected with streptavidin-HRP and reacted with TMB 1-Step Ultra TMB-ELISA Substrate Solution (Thermo Scientific). Reactions were stopped with an equal volume of 1N sulfuric acid; and absorbance at OD₄₅₀ₙₘ was measured. The ratio of absorbance of binding by Factor Bb versus Factor B (fBb/B ratio) was calculated and the results are shown in FIG. 3.

[2] = biological target: cynomolgus monkey Factor Bb (cynomolgus monkey); experiment: cell-based or functional assay
purified human Factor Bb [3] = biological target: T2, purified human Factor Bb; experiment: cell-based or functional assay
purified human Factor Bb [4] = biological target: T2, purified human Factor Bb; experiment: antigen-capture ELISA, ratio of absorbance with biotinylated Factor Bb to that with Factor B
Experimental: as §1
Target sequence in this assay (P00751 260-764 limits assumed): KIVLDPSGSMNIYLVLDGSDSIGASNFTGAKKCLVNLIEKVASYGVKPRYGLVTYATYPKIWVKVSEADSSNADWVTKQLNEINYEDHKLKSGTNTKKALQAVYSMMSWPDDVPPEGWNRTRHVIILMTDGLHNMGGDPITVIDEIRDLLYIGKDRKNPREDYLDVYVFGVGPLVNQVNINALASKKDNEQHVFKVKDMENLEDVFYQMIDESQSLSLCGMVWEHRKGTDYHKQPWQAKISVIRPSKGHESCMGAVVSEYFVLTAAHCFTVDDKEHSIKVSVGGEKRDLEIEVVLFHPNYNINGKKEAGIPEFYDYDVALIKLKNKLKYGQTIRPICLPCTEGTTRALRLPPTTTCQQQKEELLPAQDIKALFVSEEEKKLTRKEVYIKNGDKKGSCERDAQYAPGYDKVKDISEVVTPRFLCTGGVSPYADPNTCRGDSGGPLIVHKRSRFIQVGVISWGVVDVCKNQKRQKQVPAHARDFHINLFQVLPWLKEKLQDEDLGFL

[5] = biological target: T3, cynomolgus monkey Factor Bb (cynomolgus monkey); experiment: ELISA; cynomolgus Factor Bb coated at 5 µg/mL, mAb in 3-fold dilutions from 10 µg/mL; EC50 by Prism according to the text, headed 'Binding Affinity (M)' on the sheet
T3 construct: In the serum assays the target is the factor B/Bb of cynomolgus serum; also called cyno Factor Bb
Experimental: (§2) The relative EC₅₀ values for factor Bb mAbs were determined by ELISA. Unlabeled purified human Factor Bb (Complement Technologies; 1 μg/mL) was coated onto a high binding ELISA plate, and incubated with increasing amounts of purified mAbs (3-fold serial dilutions starting at 10 μg/mL). Horse radish peroxidase (HRP)-conjugated goat anti-mouse secondary antibody (Southern Biotech) was used for detection, and reacted with 3,3′,5,5′-Tetramethylbenzidine (TMB) 1-Step Ultra TMB-ELISA Substrate Solution (Thermo Scientific). Reactions were stopped with an equal volume of 1N sulfuric acid; and absorbance at OD₄₅₀ₙₘ was measured.
(§3) Factor Bb mAbs were assayed for their ability to bind to cynomolgus monkey Factor B or Factor Bb by ELISA. 5 μg/mL of each purified protein (Innovative Research; purified in-house) was coated onto ELISA plates, incubated with purified factor Bb mAbs (3-fold serial dilutions starting at 10 μg/mL), and bound antibody was detected as in Example 2.

purified human Factor Bb [6] = biological target: T2, purified human Factor Bb; experiment: ELISA; human Factor Bb coated at 1 µg/mL, mAb in 3-fold dilutions from 10 µg/mL, HRP goat anti-mouse, OD450
Experimental: as §2
Target sequence in this assay (P00751 260-764 limits assumed): as above

purified human Factor Bb [7] = biological target: T2, purified human Factor Bb; experiment: ELISA on coated human Factor Bb; EC50 calculated with PRISM from the curves of FIG. 1
Experimental: as §2
Target sequence in this assay (P00751 260-764 limits assumed): as above

purified human Factor Bb [8] = biological target: T2, purified human Factor Bb; experiment: antigen-capture ELISA; mAb at 1 µg/mL on goat anti-mouse IgG plates, 1 µg/mL biotinylated Factor Bb or Factor B, streptavidin-HRP; OD450 with Factor Bb divided by OD450 with Factor B
Experimental: as §1

full-length Factor B = biological target: T4, full-length Factor B (UniProt P00751 26-764); experiment: antigen-capture ELISA, antibody on goat anti-mouse IgG plate
T4 construct: Biotinylated in the antigen-capture ELISA, unlabeled in SEC; also called Factor B zymogen; FB
Experimental: as §1

[9] = biological target: T1, cynomolgus monkey Factor Bb; experiment: ELISA; cynomolgus Factor Bb coated at 5 µg/mL, mAb in 3-fold dilutions from 10 µg/mL; EC50 by Prism according to the text, headed 'Binding Affinity (M)' on the sheet
Experimental: as §2, §3

| Binder | Ratio OD fBb/fB (ELISA) (purified human Factor Bb [1]) | IC50, Wieslab AP activity, 5.5% cynomolgus monkey serum [2] | IC50, hemolysis of rabbit RBCs by 5% cynomolgus monkey serum [2] | IC50, Wieslab AP activity, 5.5% normal human serum (purified human Factor Bb [3]) | fBb/B ratio (purified human Factor Bb [4]) | EC50 [5] | EC50 (read off the curve) (purified human Factor Bb [6]) | EC50 (purified human Factor Bb [7]) | Ratio OD fBb/fB (ELISA) (purified human Factor Bb [8]) | binding result (full-length Factor B) | EC50 [9] |
| --- | --- | --- | --- | --- | --- | --- | --- | --- | --- | --- | --- |
| anti-factor Bb monoclonal antibody M10 (antibody, V domains shown, Mouse monoclonal purified from hybridoma supernatant) VH: EVQLVESGGALVKPGGSLKLSCAASGFTFSNYAMSWVRQTPEKRLEWVATISNRGSYTYYPDSVKGRFTISRDNAKNTLYLQMSSLRSEDTALYYCARERPMDYWGQGTSVTVSS VL: DIVMTQSHKFMSTSVGDRVSITCKASQDVGTAVAWYQQKPGQSPKLLIYWASTRHTGVPDRFTGSGSGTDFTLTITNVQSEDLAVYFCHQHSSNPLTFGAGTKLELK | 5.49 | 367 nM | 220 nM | 97.9 nM | 5.5 | 0.488 nM | ~0.3 nM | 0.335 nM | – | – | – |
| anti-factor Bb monoclonal antibody M18 (antibody, V domains shown, Mouse monoclonal purified from hybridoma supernatant) VH: EVQLVESGGALVKPGGSLKLSCAASGFTFSNYAMSWVRQTPEKRLEWVATISNRGSYTYYPDSVKGRFTISRDNAKNTLYLQMSSLRSEDTALYYCARERPMDYWGQGTSVTVSS VL: DIVMTQSHKFMSTSVGDRVSITCKASQDVGTAVAWYQQKPGQSPKLLIYWASTRHTGVPDRFTGSGSGTDFTLTITNVQSEDLAVYFCHQHSSNPLTFGAGTKLELK | – | – | 232 nM | – | 8.4 | 0.449 nM | ~0.3 nM | 0.336 nM | – | – | – |
| anti-factor Bb monoclonal antibody M4 (antibody, V domains shown, Mouse monoclonal purified from hybridoma supernatant; also called Factor B/Bb antibody M4) VH: EVQLQQSGPELVKPGASVKMSCKASGYSFTDYLMNWVKQSHGKSLEWIGRINPYNGDAFYNQRFKGKATLTVDKSSSTAHMELRSLTSEDSALYYCARLENDYGFTYWGQGTLVTVSA VL: DIVMTQAAFSNPVTLGTSASISCSSSKSLLHSNGITYLYWYLQRPGQSPQLLIYRMSNLASGVPDRFSGSGSGTDFTLRISRVEAEDVGVYYCAQMLERPWTFGGGTKLEIK | – | – | 25 nM | – | ≥ 1 | – | ~0.8 nM | 0.874 nM | 0.59 | – | – |
| anti-factor Bb monoclonal antibody M12 (antibody, V domains shown, Mouse monoclonal purified from hybridoma supernatant) VH: EVQLQQSGPELVKPGASVKMSCKASGYSFTDYLMNWVKQSHGKSLEWIGRINPYNGDAFYNQRFKGKATLTVDKSSSTAHMELRSLTSEDSALYYCARLENDYGFTYWGQGTLVTVSA VL: DIVMTQAAFSNPVTLGTSASISCSSSKSLLHSNGITYLYWYLQRPGQSPQLLIYRMSNLASGVPDRFSGSGSGTDFTLRISRVEAEDVGVYYCAQMLERPWTFGGGTKLEIK | – | – | 28.2 nM | – | ≥ 1 | 2.55 nM | ~0.7 nM | 0.761 nM | 0.82 | – | – |
| anti-factor Bb monoclonal antibody M17 (antibody, V domains shown, Mouse monoclonal purified from hybridoma supernatant) VH: EVQLVESGGVLVKPGGSLKLSCAASGFTFSNFAMSWVRQTPAKRLEWVATISNGGGYTYYPDSVQGRFTISRDNANNTLYLQMSSLRSEDTALYYCARIYYGSSYEDWFAYWGQGTLVTVSA VL: DIVMTPSHKFMSTSVGDRVSITCKASQDVGSAVAWYQQKPGHSPKLLIFWASTRHTGVPDRFTGSGSGTDFTLTISNVQSEDLADYFCQQYSSYPYTFGGGTRLEIK | – | – | – | – | – | – | – | 3.14 nM | 70.7 | no binding (tested: 1 µg/mL biotinylated factor B) | ~2.64 nM |
